Data taken from US20250034260A1 (Sanofi, published 2025).

B1: T-0263-00_TP069 (Fc fusion)
chain 1: DKTHTCPPCPAPELLGGPSVFLFPPKPKDTLYITREPEVTCVVVDVSHEDPEVKFNWYVDGVEVHNAKTKPREEQYNSTYRVVSVLTVLHQDWLNGKEYKCKVSNKALPAPIEKTISKAKGQPREPQVYTLPPCRDELTKNQVSLWCLVKGFYPSDIAVEWESNGQPENNYKTTPPVLDSDGSFFLYSKLTVDKSRWQQGNVFSCSVMHEALKFHYTQKSLSLSPGGGGGSGGGGSGGGGSGGGGSGGGGSGGGGSGGGGSEVQLVESGGGVVQPGGSLRLSCAASGFTFSSYAMYWVRQAPGKGLEWVSAISSGGGSTDYADSVKGRFTISRDNSKNTLYLQMNSLRPEDTALYYCAADTLYTSLTSYSYWGQGTLVTVSS
chain 2: DKTHTCPPCPAPELLGGPSVFLFPPKPKDTLYITREPEVTCVVVDVSHEDPEVKFNWYVDGVEVHNAKTKPREEQYNSTYRVVSVLTVLHQDWLNGKEYKCKVSNKALPAPIEKTISKAKGQPREPQVCTLPPSRDELTKNQVSLSCAVKGFYPSDIAVEWESNGQPENNYKTTPPVLDSDGSFFLVSKLTVDKSRWQQGNVFSCSVMHEALKFHYTQKSLSLSPG
notes: also called C-terminal fusion construct; human IgG1 Fc YTE-KF (knob)-35GS-T0263018B11(W100cS) + Fc YTE-KF (hole)
B2: T-0263-00_TP067 (Fc fusion)
chain 1: DVQLVESGGGVVQPGGSLRLSCAASGFTFSSYAMYWVRQAPGKGLEWVSAISSGGGSTDYADSVKGRFTISRDNSKNTLYLQMNSLRPEDTALYYCAADTLYTSLTSYSYWGQGTLVTVSSDKTHTCPPCPAPELLGGPSVFLFPPKPKDTLYITREPEVTCVVVDVSHEDPEVKFNWYVDGVEVHNAKTKPREEQYNSTYRVVSVLTVLHQDWLNGKEYKCKVSNKALPAPIEKTISKAKGQPREPQVYTLPPCRDELTKNQVSLWCLVKGFYPSDIAVEWESNGQPENNYKTTPPVLDSDGSFFLYSKLTVDKSRWQQGNVFSCSVMHEALKFHYTQKSLSLSPG
chain 2: B1 chain 2
notes: also called N-terminal fusion construct; T0263018B11(E1D,W100cS)-human IgG1 Fc YTE-KF (knob) + Fc YTE-KF (hole)
B3: T-0263-00_TP061 (other)
chain: DKTHTCPPCPAPELLGGPSVFLFPPKPKDTLYITREPEVTCVVVDVSHEDPEVKFNWYVDGVEVHNAKTKPREEQYNSTYRVVSVLTVLHQDWLNGKEYKCKVSNKALPAPIEKTISKAKGQPREPQVYTLPPSRDELTKNQVSLTCLVKGFYPSDIAVEWESNGQPENNYKTTPPVLDSDGSFFLYSKLTVDKSRWQQGNVFSCSVMHEALKFHYTQKSLSLSPGK
notes: Symmetrical (homodimeric) Fc-only control made without knob-in-hole; also called control FcRn antagonist; IgG1 Fc YTE-KF Fc domain without Nanobody VHH

Experiments:
[1] = biological target: T1, human FcRn (biotinylated) (human, UniProt P61769 21-119, biotinylated (site not stated)); assay: SPR, Biacore 8K+, biotinylated human FcRn captured on SA chip, pH 6.0, bivalent analyte fit
T1 construct: also called neonatal Fc receptor; FcRP
T1 sequence (chain, as listed by the source limits assumed, chain 1 of 2): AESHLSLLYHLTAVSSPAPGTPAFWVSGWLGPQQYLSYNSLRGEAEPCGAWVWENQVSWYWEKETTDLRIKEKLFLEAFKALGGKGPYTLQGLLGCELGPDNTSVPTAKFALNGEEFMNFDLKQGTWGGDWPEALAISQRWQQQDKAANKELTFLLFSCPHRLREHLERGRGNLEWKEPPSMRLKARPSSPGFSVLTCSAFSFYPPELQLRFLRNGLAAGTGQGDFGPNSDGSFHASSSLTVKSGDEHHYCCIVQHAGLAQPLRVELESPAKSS
T1 sequence (P61769 21-119 limits assumed, chain 2 of 2): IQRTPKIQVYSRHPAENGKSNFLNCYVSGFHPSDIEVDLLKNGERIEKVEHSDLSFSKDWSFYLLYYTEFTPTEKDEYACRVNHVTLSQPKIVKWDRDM
Experimental: (§1) The Nanobody® VHH-Fc protein constructs (FcRn antagonists) were characterized by affinity determination for human FcRn and cyno FcRn at pH 6.0 and pH 7.4 on the Biacore 8K+ instrument. For affinity measurements, ^{˜}200-400 of biotinylated human or cyno FcRn was captured on a Series S Sensor Chip SA. The Nanobody® VHH-Fc fusion proteins were injected at 9 different concentrations (between 0.5 and 1500 nM) and allowed to associate for 120 s at 30 μL/min and dissociate for 600 s.
(§2) The data could not be fitted with the 1:1 Langmuir dissociation model, and a Bivalent Analyte fitting model was used instead due to biphasic on-rate behaviour observed during analysis. The FcRn affinities obtained for TP061 were in line with the published data (see, e.g., Vaccaro, C., Zhou, J., Ober, R. et al., “Engineering the Fc region of immunoglobulin G to modulate in vivo antibody levels”, Nat. Biotechnol. 23, 1283-1288 (2005)).

[2] = biological target: T1, human FcRn (biotinylated); assay: SPR, Biacore 8K+, biotinylated human FcRn captured on SA chip, pH 7.4, bivalent analyte fit
Experimental: as §1, §2

cyno FcRn (biotinylated) [3] = biological target: T2, cyno FcRn (biotinylated) (cynomolgus, UniProt Q8SPV9 24-297; Q8SPW0 21-119, limits assumed, biotinylated (site not stated)); assay: SPR, Biacore 8K+, biotinylated cyno FcRn captured on SA chip, pH 7.4, bivalent analyte fit
T2 construct: also called Cynomolgus FcRn; cynomolgus monkey FcRn
T2 sequence (Q8SPV9 24-297 limits assumed, chain 1 of 2): as the sequence (chain, as listed by the source limits assumed, chain 1 of 2) above, with N39D, E44Q, G99S, S189G, S190N, L217M, S269T counted along it
T2 sequence (Q8SPW0 21-119 limits assumed, chain 2 of 2): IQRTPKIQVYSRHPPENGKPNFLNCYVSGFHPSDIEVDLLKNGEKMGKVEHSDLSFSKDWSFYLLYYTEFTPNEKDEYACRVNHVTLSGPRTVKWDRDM
Experimental: as §1, §2

cyno FcRn (biotinylated) [4] = biological target: T2, cyno FcRn (biotinylated); assay: SPR, Biacore 8K+, biotinylated cyno FcRn captured on SA chip, pH 6.0, bivalent analyte fit
Experimental: as §1, §2

cyno FcRn (biotinylated) [5] = biological target: T2, cyno FcRn (biotinylated); assay: SPR, Biacore 8K+, biotinylated cyno FcRn captured on SA chip, pH 6.0, bivalent analyte fit; pH 6.0
Experimental: as §1, §2

[6] = biological target: T1, human FcRn (biotinylated); assay: SPR, Biacore 8K+, biotinylated human FcRn captured on SA chip, pH 6.0, bivalent analyte fit; pH 6.0
Experimental: as §1, §2

Binder | Kd [1] [nM] | Kd [2] [nM] | Kd (cyno FcRn (biotinylated) [3]) [nM] | Kd (cyno FcRn (biotinylated) [4]) [nM] | Kd (cyno FcRn (biotinylated) [5]) [nM] | Kd [6] [nM]
B1 | 0.873 | 14 | 12.5 | 0.683 |  | 
B2 | 0.692 | 10.3 | 11.2 | 0.541 |  | 
B3 |  |  |  |  | 27.5 | 17.2
